Data published in the supplement of paper PMC9170038.

Test system: MS2 coat protein
Assay: apparent KD of MS2 coat protein; designed switch direction (-1 OFF switch, 1 ON switch): -1; higher = weaker reporter binding
How it was run: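 SNAP-549-labelled MS2 coat protein was titrated, doubling from 0.7 or 1.5 nM to 3 µM, over designed RNA switches transcribed on Illumina chips by stalled E. coli RNA polymerase. Runs were done without input, with 200 uM small-molecule ligand, or with an oligonucleotide input. Apparent KD is the per-design median over clusters of curve-fitted normalised fluorescence.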

[1] = Eterna round: R95, input ligand: FMN 200 uM
[2] = Eterna round: R95, input ligand: microRNA oligo, concentration not stated
[3] = Eterna round: R95, input ligand: none
[4] = input ligand: microRNA oligo, concentration not stated

Sequence	apparent KD of MS2 coat protein [1]	apparent KD of MS2 coat protein [2]	apparent KD of MS2 coat protein [3]	apparent KD of MS2 coat protein (input ligand: FMN 200 uM)	apparent KD of MS2 coat protein [4]	apparent KD of MS2 coat protein (input ligand: none)
CAUACUCAAGUCAGGAUAUAGUCUCGGAUACGGAACUAGAAGGGACAUGAGGAUCACCCAUGUAGAGAGUAAAG [EX-4 Malc #27] (puzzle: Brourd's mod of Exclusion 4)	63.2 nM	37.8 nM	52.2 nM			
UAAGAUUACCGAGGAUAUGCUGGUUUAUCUCAAGCAGAAGGCGGACUCAACAUGAGGAUCACCCAUGUAAGACGGGUACUAGAU [Ex NG1 #12] (Eterna round: R96, puzzle: Exclusion NG 1)				61.5 nM	69.1 nM	97.1 nM
CUGGUCCGAGGAUAUAUUAAGUGAUACAUGAGGAUCACCCAUGUAAUUUAAUGGAUGUAAAUAGAAGGCGGACUAG [JL-ex5-3.11] (puzzle: Exclusion 5)	43.2 nM	39.7 nM	38.7 nM			
AAUACACAUGAGGAUCACCCAUGUUAGGAUAUGAGCGGGCAGACAGACAGACAGACGAUCAGAAGGAAUAGGAA [Excls1-VI] (puzzle: Exclusion 1)	25.5 nM	30.2 nM	28.9 nM			
CUCCCUUCAGGAUAUACAUGAGGAUCACCCAUGUGUUCCAGCUAGGAAACUAGCAAAUGUAGAAGGGAAGGGAG [Mat - Exclusion 3 - JL Mod - D4] (Eterna round: R97, puzzle: Exclusion 3)				183 nM		90 nM
AAUUAUUUUUGAGGAUAUGGUGGUGAAACACCACCAGAAGGCGGAAUAAACAUGAGGAUCACCCAUGUGAGCCUGAUGCUUAUG [Ex NG1 #47] (Eterna round: R96, puzzle: Exclusion NG 1)					17.5 nM	
AGUCGGUCAGGAUAUGCAAUCGUGGACAUGAGGAUCACCCAUGUAACGUGGGCCUGGUUUGUAGAAGGGACGAGCA [EX5 #87] (Eterna round: R97, puzzle: Exclusion 5)				66 nM		61.2 nM
AAGACACAUGAGGAUCACCCAUGUGAGGAUAUUCGAUGCUGAGCGUAAGCUUAGUAUCGGAGAAGGUACAUAGG [Salishxclusion 9 - Jieux - Exclusion 1] (Eterna round: R97, puzzle: Exclusion 1)				77.2 nM		66.6 nM
GUGAUAUAGUUAGUGGCCUACAUGAGGAUCACCCAUGUGAGGGAAAUGUUGAGGCGAAAGUUUUUUGCUCGUCUUUA [JR_SV3TOV1_Sub038] (puzzle: Sensor v3, turn-off variant 1)	18 nM	38.6 nM	19.1 nM			
UUGUUGUAUGUAGGAUAUGCAUAUUAUUAUUAUGCAGAAGGACAUGAGGAUCACCCAUGUAUAUUAUUAUUAUAUGUUAUAUAU [Title] (Eterna round: R96, puzzle: Exclusion NG 1)					20 nM	
CCUAAAUCCUAGGAUAUGCUAGACGAAAGUCUAGCAGAAGGAGGAACAUGAGGAUCACCCAUGUGUCCUAUAGG [Mat - Exclusion 6 - Eli Mod - D31] (Eterna round: R97, puzzle: Exclusion 6)				20.6 nM		16.5 nM
GGUAAGCUAGGAUAUGCUUUGGGAAAGCAUUCCUUCGAUAAACUUGAGGAUCACCCAAGUAGAAGGAGCUUACG [salish99_ex2_r4_015] (Eterna round: R97, puzzle: Exclusion 2)				16.7 nM		12.8 nM
AGUGUGUGGCAGGAUAUUCUAAUGAUUAGGACAGAAGAAGGGUCUACAUGAGGAUCACCCAUGUAAGCGGUUGA [Ex6 #38] (Eterna round: R97, puzzle: Exclusion 6)				211 nM		82.3 nM
UUUAAUUUUUUUUUUUUACAAGCUUUUUGCUCGUCUUAUACAUGAGGAUCACCCAUGUGAGUGGGAAAUGAAUUAUC [JMF 100] (puzzle: Sensor v3, turn-off variant 2)	99 nM	218 nM	111 nM			
GGGAAACAUGAGGAUCACCCAUGUAAUGAGCAUGGAAUCCCAGAGGAUAUCGCAUGUAUGAAUGUCGAGAAGGCUGACGUUAAA [Eternabot solution 6] (Eterna round: R96, puzzle: Exclusion NG 3)				1030 nM	198 nM	207 nM
UCGUAGGAAGGAUAUGCAUGCUUUGAUAAAUCCAGGCCUGGACAUGAGGAUCACCCAUGUAGAAGGUCCACGGA [EX2 B.11] (Eterna round: R97, puzzle: Exclusion 2)				36.6 nM		31.4 nM
CUCAUGCCUGAGGAUAUGCUGUACAAAAGUACUGCAGAAGGUAGAACAUGAGGAUCACCCAUGUGGCGAAAGCC [Omei Ex G3] (Eterna round: R97, puzzle: Exclusion 6)				171 nM		45.8 nM

Sequence	apparent KD of MS2 coat protein [1]	apparent KD of MS2 coat protein [2]	apparent KD of MS2 coat protein [3]	apparent KD of MS2 coat protein (input ligand: FMN 200 uM)	apparent KD of MS2 coat protein [4]	apparent KD of MS2 coat protein (input ligand: none)
GUGUUUGGUGUAGGAUAUGUUUGUGGGUCGCGGGCAGAAGGACAUGAGGAUCACCCAUGUUUCGGGCUUGGCUUGGGCGGGCGC [-21, -19 kcal and 14% A] (Eterna round: R96, puzzle: Exclusion NG 1)				16.7 nM	12.4 nM	17.6 nM
CGAUGUCUUCGGACAUCGAACAUGAGGAUCACCCAUGUAAUGAGCAGAUCUUCAUGCAAGCUUUUUGCUCGUCUUAU [Sensor v3 - turn-off variant 1 - 44] (puzzle: Sensor v3, turn-off variant 1)	215 nM	11.6 nM	213 nM			
AGUAGUAGUAUCCGAUCCUACAUGAGGAUCACCCAUGUAGCUAGACGUGCACGCGAUGCGCGUCAGACUACCAGAUG [salish99_TOv1_r3_042] (puzzle: Sensor v3, turn-off variant 1)	184 nM	159 nM	240 nM			
UUAAAUCAUGUAGGAUAUGGAAGGCGAACCUAUCCAGAAGGACAUGAGGAUCACCCAUGUGCUGCGUUGUCCGUAGACAGCGCU [Ex NG1 #1] (Eterna round: R96, puzzle: Exclusion NG 1)				114 nM	29.5 nM	36.2 nM
CGAUGUAGAGGAUAUACGUGAAUUUUGUUAUUUUUUAAUUUACAUGAGGAUCACCCAUGUAGAAGGCUAUAUCG [JR_Ex2_Sub087] (Eterna round: R97, puzzle: Exclusion 2)				91.9 nM		22.2 nM
CGGGCCGGCCUUCCGGCCGGCCCGACAUGAGGAUCACCCAUGUAGGAUAUCCCGGCUGCCGGCCGGGAGAAGGGCGUGCGUCCC [-49.5, -48.5 kcal, 14% A] (Eterna round: R96, puzzle: Exclusion NG 3)				39.8 nM	27.6 nM	33.5 nM
AUGGGUCCUCUCGGAGCGACAUGAGGAUCACCCAUGUGUGUUGAGGAUAUCCACUGCUCAGGACGGGAGAAGGCAGUGUACUGU [Ex NG3 #86] (Eterna round: R96, puzzle: Exclusion NG 3)				55.9 nM	32.5 nM	48.8 nM
AUAAAAGAGUUAGGAUAUCGGAAAGGAAGUGUACGAGAAGGAACGGUAUCCUCGGAAAGACAUGAGGAUCACCCAUGUAGAAAA [PowerStrip EXNG 1.6] (Eterna round: R96, puzzle: Exclusion NG 1)				34.9 nM	23.4 nM	35.4 nM
AAAUAAUAGAUAAAAUAACACAUGAGGAUCACCCAUGUGCGAUGUUGAGGGUGAUACAGGCUUUUUGCUCGUCUUAU (puzzle: Sensor v3, turn-off variant 1)	98.7 nM	225 nM	132 nM			
AAAAAACAAGGAUAUACAAAAAAAAAAUGUGUUAAAAAUCCACAUGAGGAUCACCCAUGUAGAAGGUGUAAAAA [JR_Exclusion2_Sub004] (puzzle: Exclusion 2)	81 nM	104 nM	172 nM			
ACAUGAGGAUCACCCAUGUCAGGCUGGUCCACUCCGGCUGUUGAGGAUAUAGCCCGGUAUCCGCGCUAGAAGGUGAGGGCCGGC [Aenatbe mod 27] (Eterna round: R96, puzzle: Exclusion NG 3)				25.5 nM	17.6 nM	23 nM
UUCCUCAUAACAUGAGGAUCACCCAUGUAUUAUUUGAUAACUGAGGAUAUACUUUUAAUGUUUAUGUAGAAGGCAGAUACAGUU [JR_ExcNG3_Sub016] (Eterna round: R96, puzzle: Exclusion NG 3)					89.6 nM	
AGUACUAACACGAAAGUGUUAGUACUAUAAGCUUGUGUUACAUGAGGAUCACCCAUGUCCUCAUAAGCUCGUCUUGU [Mat - Sensor v3 - Turn-off var 2 - D104] (puzzle: Sensor v3, turn-off variant 2)	46.4 nM	48.7 nM	54.4 nM			
ACUUGCUAUUUGCUCGUCUUAUCCUUGUUUGUUUACUAUACAUGAGGAUCACCCAUGUUAUAUUUAAGGGUGUGAUA [JR_SV3TOV2_Sub075] (puzzle: Sensor v3, turn-off variant 2)	141 nM	322 nM	166 nM			
GAUACACAUGAGGAUCACCCAUGUGAGGAUAUGCGUACGUUGUCCGUAGGCGACGUGCGCAGAAGGCGCGUGAG [Mat - Mod of JL D88] (puzzle: Exclusion 1)		46.4 nM				
AGACAAACUGCAGGAUAUUGGCUGACUGCAGGUCAAGAAGGGCAGGACAUGAGGAUCACCCAUGUUCAGUAAACAGGGAGUCCU [Eternabot solution 14] (Eterna round: R96, puzzle: Exclusion NG 1)				309 nM	43.7 nM	46.6 nM
